Experimental data: article PMC1964548, “Structural and Functional Analyses of Five Conserved Positively Charged Residues in the L1 and N-Terminal DNA Binding Motifs of Archaeal RadA Protein” (PLoS ONE, 2007)

Molecular target: the molecule itself
Assay: crystal structure; hanging drop vapor diffusion; SsoRadA 24 mg/ml in 30 mM Tris-HCl pH 8.0; reservoir 100 mM KCl, 25 mM MgCl2, 15% isopropanol, 50 mM sodium cacodylate pH 6.0; space group P3_(1), 1.93 Å; 3_(1) overwound right-handed filament

B1: Sulfolobus solfataricus RadA (natural protein, UniProt Q55075 1-324, looked up)
chain: MSNEVEQKKNIKTINDLPGISQTVINKLIEAGYSSLETLAVASPQDLSVAAGIPLSTAQKIIKEARDALDIRFKTALEVKKERMNVKKISTGSQALDGLLAGGIETRTMTEFFGEFGSGKTQLCHQLSVNVQLPPEKGGLSGKAVYIDTEGTFRWERIENMAKALGLDIDNVMNNIYYIRAINTDHQIAIVDDLQELVSKDPSIKLIVVDSVTSHFRAEYPGRENLAVRQQKLNKHLHQLTRLAEVYDIAVIITNQVMARPDMFYGDPTVAVGGHTLYHVPGIRIQLKKSRGNRRIARVVDAPHLPEGEVVFALTEEGIRDAEE
notes: RadA of Sulfolobus solfataricus; Forms a helical filament in the crystal (three protomers per turn, 98 Å pitch; three protomers in the asymmetric unit, each belonging to a filament of its own); also called SsoRadA; wild-type SsoRadA; source: expressed and purified as described previously [16]
**Q.** Does B1 bind?
**A.** Result: binds
